Source: patent publication US20190241648A1 (STATEN BIOTECHNOLOGY B V, published 2019)
Ends that are not written are not given here.

Columns and labels:
Test in all cases: cyclic peptide substitution array
ApoC3 peptide W65C = target: T1, ApoC3 peptide W65C (human, not fully specified; cyclic (thioether))
T1 peptide: DKFSEFCDLDPEV
Text: (§1) S62 and D68 of mature huApoC3 were also highly conserved; substitution of S62 by A or V, and substitution of D68 by E or P, caused decrease of spot intensities by ˜60% or higher. […] Amino acid F64 was completely variable.
(§2) Pre: staining of one of the ApoC3 peptide microarrays was done with the secondary antibody goat anti-human IgG (Fe) DyLight680 (1:5000) and control antibody mouse monoclonal anti-HA (12CA5) DyLight800 (1:2000) to investigate background interactions of the secondary antibody with the antigen-derived peptides that could interfere with the main assays. Subsequent incubation of other ApoC3 peptide microarrays with antibody samples was followed by staining with secondary and control antibodies as well as read-out at scanning intensities of 7/7 (red/green). The additional HA peptides framing the peptide arrays were stained as internal quality control to confirm the assay quality and the peptide microarray integrity.

ApoC3 peptide L67E = target: T2, ApoC3 peptide L67E (human, thioether (positions not given here); not fully specified (bridges); also: thioether between a C-terminal Cys side chain and a modified N-terminus, the Cys is not in the chain)
T2 peptide: DKFSEFWDEDPEV
Text: as §1, §2

ApoC3 peptide F61G = target: T3, ApoC3 peptide F61G (human, cyclic (thioether))
T3 peptide: DKGSEFWDLDPEV
Text: as §1, §2

ApoC3 peptide W65G = target: T4, ApoC3 peptide W65G (human, not fully specified; cyclic (thioether))
T4 peptide: DKFSEFGDLDPEV
Text: as §1, §2

ApoC3 peptide F64H = target: T5, ApoC3 peptide F64H (human, thioether (positions not given here); not fully specified (bridges); also: cyclic (thioether), positions not given here)
T5 peptide: DKFSEHWDLDPEV
Text: as §1, §2

ApoC3 peptide D68H = target: T6, ApoC3 peptide D68H (human, cyclic (thioether))
T6 peptide: DKFSEFWDLHPEV
Text: as §1, §2

ApoC3 peptide D59I = target: T7, ApoC3 peptide D59I (human, thioether (positions not given here); not fully specified (C-terminus, bridges))
T7 peptide: IKFSEFWDLDPEV
Text: as §1, §2

ApoC3 peptide W65L = target: T8, ApoC3 peptide W65L (human, cyclic (thioether))
T8 peptide: DKFSEFLDLDPEV
Text: as §1, §2

ApoC3 peptide F61M = target: T9, ApoC3 peptide F61M (human, cyclic (thioether))
T9 peptide: DKMSEFWDLDPEV
Text: as §1, §2

ApoC3 peptide L67M = target: T10, ApoC3 peptide L67M (human, thioether (positions not given here); not fully specified (bridges); also: thioether between a C-terminal Cys side chain and a modified N-terminus, the Cys is not in the chain)
T10 peptide: DKFSEFWDMDPEV
Text: as §1, §2

ApoC3 peptide W65N = target: T11, ApoC3 peptide W65N (human, not fully specified; cyclic (thioether))
T11 peptide: DKFSEFNDLDPEV
Text: as §1, §2

ApoC3 peptide D66N = target: T12, ApoC3 peptide D66N (human, not fully specified; cyclic (thioether))
T12 peptide: DKFSEFWNLDPEV
Text: as §1, §2

ApoC3 peptide D68N = target: T13, ApoC3 peptide D68N (human, cyclic (thioether))
T13 peptide: DKFSEFWDLNPEV
Text: as §1, §2

ApoC3 peptide V71N = target: T14, ApoC3 peptide V71N (human, thioether (positions not given here); also: cyclic (thioether), ring places not given here)
T14 peptide: DKFSEFWDLDPEN
Text: as §1, §2

ApoC3 peptide S62P = target: T15, ApoC3 peptide S62P (human, thioether (positions not given here); also: cyclic (thioether), ring places not given here)
T15 peptide: DKFPEFWDLDPEV
Text: as §1, §2

ApoC3 peptide E70P = target: T16, ApoC3 peptide E70P (human, cyclic (thioether))
T16 peptide: DKFSEFWDLDPPV
Text: as §1, §2

ApoC3 peptide E63R = target: T17, ApoC3 peptide E63R (human, cyclic (thioether))
T17 peptide: DKFSRFWDLDPEV
Text: as §1, §2

ApoC3 peptide D59T = target: T18, ApoC3 peptide D59T (human, thioether (positions not given here); not fully specified (C-terminus, bridges); also: cyclised via thioether between a C-terminal Cys and a modified N-terminus, the Cys and the N-terminal …)
T18 peptide: TKFSEFWDLDPEV
Text: as §1, §2

ApoC3 peptide S62T = target: T19, ApoC3 peptide S62T (human, thioether (positions not given here); also: cyclic (thioether), ring places not given here)
T19 peptide: DKFTEFWDLDPEV
Text: as §1, §2

ApoC3 peptide V71T = target: T20, ApoC3 peptide V71T (human, not fully specified; cyclic (thioether))
T20 peptide: DKFSEFWDLDPET
Text: as §1, §2

ApoC3 peptide D59V = target: T21, ApoC3 peptide D59V (human, thioether (positions not given here); not fully specified (C-terminus, bridges); also: cyclised via thioether between a C-terminal Cys and a modified N-terminus, the Cys and the N-terminal …)
T21 peptide: VKFSEFWDLDPEV
Text: as §1, §2

ApoC3 peptide F61V = target: T22, ApoC3 peptide F61V (human, cyclic (thioether))
T22 peptide: DKVSEFWDLDPEV
Text: as §1, §2

ApoC3 peptide D66V = target: T23, ApoC3 peptide D66V (human, not fully specified; cyclic (thioether))
T23 peptide: DKFSEFWVLDPEV
Text: as §1, §2

ApoC3 peptide P69V = target: T24, ApoC3 peptide P69V (human, not fully specified; cyclic (thioether))
T24 peptide: DKFSEFWDLDVEV
Text: as §1, §2

ApoC3 peptide D66W = target: T25, ApoC3 peptide D66W (human, cyclic (thioether))
T25 peptide: DKFSEFWWLDPEV
Text: as §1, §2

ApoC3 peptide S62Y = target: T26, ApoC3 peptide S62Y (human, thioether (positions not given here); also: cyclic (thioether), ring places not given here)
T26 peptide: DKFYEFWDLDPEV
Text: as §1, §2

ApoC3 peptide W65Y = target: T27, ApoC3 peptide W65Y (human, cyclic (thioether))
T27 peptide: DKFSEFYDLDPEV
Text: as §1, §2

ApoC3 peptide D66Y = target: T28, ApoC3 peptide D66Y (human, cyclic (thioether))
T28 peptide: DKFSEFWYLDPEV
Text: as §1, §2

ApoC3 peptide L67A = target: T29, ApoC3 peptide L67A (human, not fully specified; cyclic (thioether))
T29 peptide: DKFSEFWDADPEV
Text: as §1, §2

ApoC3 peptide P69A = target: T30, ApoC3 peptide P69A (human, thioether (positions not given here); not fully specified (bridges); also: thioether from modified N-terminus to C-terminal Cys (Cys not in chain))
T30 peptide: DKFSEFWDLDAEV
Text: as §1, §2

B1: Llama antibody 5E5 (antibody, V domains shown)
VH: QLQLVESGGGLVQPGGSLRLSCAASGFTFGTYSMRWVRQVPRKALEWVSSISTDGGGTAYRDSVKGRFTISRDNAKNTLYLQMNNLKPEDTAIYYCVIAGYSDWGQGTQVTVSS
VL: ATMLTQSPGSLSVVPGESASISCKTSQGLVHSDGKTYFYWFLQKPGQSPQQLIYQVSNRASGVPDRFTGSGSGTDFTLKISGVKAEDAGVYYCAQGTYYPHTFGSGTRLEIK
notes: detected with goat anti-human IgG (Fc); also called mAb 5E5
- % of binding to wild-type peptide (ApoC3 peptide W65C): 0.08%
- % of binding to wild-type peptide (ApoC3 peptide L67E): 0.45%
- % of binding to wild-type peptide (ApoC3 peptide F61G): 0.74%
- % of binding to wild-type peptide (ApoC3 peptide W65G): 0%
- % of binding to wild-type peptide (ApoC3 peptide F64H): 84.5%
- % of binding to wild-type peptide (ApoC3 peptide D68H): 0%
- % of binding to wild-type peptide (ApoC3 peptide D59I): 49.1%
- % of binding to wild-type peptide (ApoC3 peptide W65L): 0%
- % of binding to wild-type peptide (ApoC3 peptide F61M): 68.7%
- % of binding to wild-type peptide (ApoC3 peptide L67M): 12.5%
- % of binding to wild-type peptide (ApoC3 peptide W65N): 0%
- % of binding to wild-type peptide (ApoC3 peptide D66N): 0%
- % of binding to wild-type peptide (ApoC3 peptide D68N): 0%
- % of binding to wild-type peptide (ApoC3 peptide V71N): 86.6%
- % of binding to wild-type peptide (ApoC3 peptide S62P): 0%
- % of binding to wild-type peptide (ApoC3 peptide E70P): 55.2%
- % of binding to wild-type peptide (ApoC3 peptide E63R): 2.19%
- % of binding to wild-type peptide (ApoC3 peptide D59T): 94.9%
- % of binding to wild-type peptide (ApoC3 peptide S62T): 215%
- % of binding to wild-type peptide (ApoC3 peptide V71T): 96.7%
- % of binding to wild-type peptide (ApoC3 peptide D59V): 43.3%
- % of binding to wild-type peptide (ApoC3 peptide F61V): 20.2%
- % of binding to wild-type peptide (ApoC3 peptide D66V): 0%
- % of binding to wild-type peptide (ApoC3 peptide P69V): 55.2%
- % of binding to wild-type peptide (ApoC3 peptide D66W): 0%
- % of binding to wild-type peptide (ApoC3 peptide S62Y): 0%
- % of binding to wild-type peptide (ApoC3 peptide W65Y): 0%
- % of binding to wild-type peptide (ApoC3 peptide D66Y): 0%
- % of binding to wild-type peptide (ApoC3 peptide L67A): 21%
- % of binding to wild-type peptide (ApoC3 peptide P69A): 25.7%
